Molecular target: CERTL (long isoform of the ceramide transport protein CERT; GPBP, COL4A3BP) (UniProt Q9Y5P4)
Experiment: SEC-MALS of self-association
Conditions: reference: hyperphosphorylated wild-type StrepII-CERTL (CERTLP); sites S132

Sequence of CERTL (long isoform of the ceramide transport protein CERT; GPBP, COL4A3BP) (Q9Y5P4 whole entry S132A, canonical isoform): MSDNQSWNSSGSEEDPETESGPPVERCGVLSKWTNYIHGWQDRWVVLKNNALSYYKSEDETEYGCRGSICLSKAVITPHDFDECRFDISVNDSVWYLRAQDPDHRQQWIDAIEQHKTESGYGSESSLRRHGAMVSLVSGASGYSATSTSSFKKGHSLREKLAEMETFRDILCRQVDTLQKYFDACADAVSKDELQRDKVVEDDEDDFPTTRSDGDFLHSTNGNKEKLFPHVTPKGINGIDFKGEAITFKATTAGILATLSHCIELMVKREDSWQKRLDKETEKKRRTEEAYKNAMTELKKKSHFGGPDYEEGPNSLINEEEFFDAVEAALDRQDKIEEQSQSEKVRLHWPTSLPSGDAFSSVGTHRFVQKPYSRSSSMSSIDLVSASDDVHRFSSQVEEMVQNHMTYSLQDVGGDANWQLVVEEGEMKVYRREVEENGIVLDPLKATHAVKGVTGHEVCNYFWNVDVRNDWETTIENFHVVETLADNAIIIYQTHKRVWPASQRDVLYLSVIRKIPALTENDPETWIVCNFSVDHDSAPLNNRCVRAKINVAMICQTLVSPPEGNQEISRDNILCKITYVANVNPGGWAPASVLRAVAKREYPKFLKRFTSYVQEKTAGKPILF

## CERTL (long isoform of the ceramide transport protein CERT; GPBP, COL4A3BP) (from UniProt Q9Y5P4) StrepII-CERTL S132A (hypophosphorylated)
  other: observed mass (expected trimer 215.7): same; reference 184.3

From paper doi:10.1101/2022.06.01.494398
